Measured values: patent US20250289899A1

Legend:
[1] = molecular target: recombinant His-tagged human FcγRIa (human) (UniProt P12314); experiment: SPR (Biacore), His-tagged FcγRIa captured on anti-His chip, antibody in solution, resonance units against antibody concentration
[2] = molecular target: recombinant His-tagged human FcγRIIIa (176-Val [V]) (human) (UniProt P08637); experiment: SPR (Biacore), His-tagged FcγRIIIa-V captured on anti-His chip, antibody in solution, resonance units against antibody concentration
recombinant His-tagged human FcγRIIIa (176-Val [V]) (human), sequence (P08637 17-208 F176V limits assumed): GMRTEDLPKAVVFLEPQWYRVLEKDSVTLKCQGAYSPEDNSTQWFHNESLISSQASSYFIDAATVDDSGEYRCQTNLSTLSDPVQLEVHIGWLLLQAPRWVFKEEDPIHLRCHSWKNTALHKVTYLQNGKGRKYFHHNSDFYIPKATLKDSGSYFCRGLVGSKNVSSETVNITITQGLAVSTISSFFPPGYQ

recombinant His-tagged human FcγRIa (human), sequence (P12314 16-288 limits assumed): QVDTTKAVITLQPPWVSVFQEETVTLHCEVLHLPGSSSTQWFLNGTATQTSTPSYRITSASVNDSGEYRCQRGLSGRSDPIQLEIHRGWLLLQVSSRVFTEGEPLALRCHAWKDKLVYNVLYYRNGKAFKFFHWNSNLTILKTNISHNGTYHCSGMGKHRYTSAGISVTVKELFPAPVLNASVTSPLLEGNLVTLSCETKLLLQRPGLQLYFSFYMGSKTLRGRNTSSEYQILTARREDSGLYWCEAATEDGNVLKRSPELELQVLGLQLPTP

EC50 (read off the curve) [1]: 60 nM
EC50 (read off the curve) [2]: 400 nM
Substance: IgG1-b12 (anti-HIV gp120 antibody, wild-type IgG1 Fc)
